B1: Noncomp-647N (ssDNA)
DNA: TCCTCTTTTTCTTTTTTTCTTTTCTTCC
B2: dT50 (Poly-T50) (ssDNA)
DNA: TTTTTTTTTTTTTTTTTTTTTTTTTTTTTTTTTTTTTTTTTTTTTTTTTT

Tests used:
[1] = biological target: T1, Polθ-h (Polθ helicase domain) (UniProt O75417 1-894); assay: single-molecule ssDNA curtain oligo capture; captured in trans by Polθ-h on RPA-GFP-coated ssDNA; no capture without Polθ-h; Imaging Buffer: 40 mM Tris-HCl pH 8.0, 50 mM NaCl, 2 mM MgCl2, 1 mM DTT, 0.2 mg/ml BSA, 1 mM ATP; EMSA at room temperature, single-molecule at 37 C; PARP-1 tethering without BSA; displacement EMSA in 30 mM HEPES pH 8.0, 50 mM NaCl, 1.5 mM MgCl2, 1 mM DTT; details: protein: recombinant; tags: pET19 N-terminal 6xHis-TwinStrep-SUMO; chain copies: 4; label: 5'-Atto647N
[2] = biological target: T1, Polθ-h (Polθ helicase domain); assay: EMSA; no PARP-1 modification; hyperbolic fit; Imaging Buffer: 40 mM Tris-HCl pH 8.0, 50 mM NaCl, 2 mM MgCl2, 1 mM DTT, 0.2 mg/ml BSA, 1 mM ATP; EMSA at room temperature, single-molecule at 37 C; PARP-1 tethering without BSA; displacement EMSA in 30 mM HEPES pH 8.0, 50 mM NaCl, 1.5 mM MgCl2, 1 mM DTT; details: protein: recombinant; tags: pET19 N-terminal 6xHis-TwinStrep-SUMO; chain copies: 4; label: 5'-32P in EMSA; unlabeled as challenge in tethering assay

T1 sequence (O75417 1-894): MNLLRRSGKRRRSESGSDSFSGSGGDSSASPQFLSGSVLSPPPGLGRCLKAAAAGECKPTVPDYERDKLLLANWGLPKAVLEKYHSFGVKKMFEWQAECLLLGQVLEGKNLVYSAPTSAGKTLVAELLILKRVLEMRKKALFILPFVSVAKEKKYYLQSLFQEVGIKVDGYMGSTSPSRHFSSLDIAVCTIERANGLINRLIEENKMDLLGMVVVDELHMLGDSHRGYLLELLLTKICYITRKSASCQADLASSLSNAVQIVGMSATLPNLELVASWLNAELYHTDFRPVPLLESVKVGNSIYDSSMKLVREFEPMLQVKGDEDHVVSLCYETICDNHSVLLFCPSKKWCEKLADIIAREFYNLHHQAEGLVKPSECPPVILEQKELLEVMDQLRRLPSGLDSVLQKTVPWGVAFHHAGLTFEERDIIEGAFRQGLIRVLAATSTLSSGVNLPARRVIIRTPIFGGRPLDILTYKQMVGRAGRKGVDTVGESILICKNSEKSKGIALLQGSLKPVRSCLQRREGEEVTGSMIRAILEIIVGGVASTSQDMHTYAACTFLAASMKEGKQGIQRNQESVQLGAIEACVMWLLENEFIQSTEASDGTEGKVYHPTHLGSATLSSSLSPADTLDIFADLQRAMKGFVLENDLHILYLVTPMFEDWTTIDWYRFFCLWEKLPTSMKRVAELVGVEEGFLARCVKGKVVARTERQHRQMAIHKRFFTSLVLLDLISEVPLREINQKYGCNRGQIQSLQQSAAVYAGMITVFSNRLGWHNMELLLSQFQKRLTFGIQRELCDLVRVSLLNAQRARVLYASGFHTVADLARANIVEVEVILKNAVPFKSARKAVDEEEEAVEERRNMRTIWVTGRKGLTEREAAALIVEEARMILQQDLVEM

Binder | binding result [1] | Kd [2] [µM]
B1 | binds | –
B2 | – | 0.039 ± 0.012

Source: PMC9023281, “Polymerase theta-helicase promotes end joining by stripping single-stranded DNA-binding proteins and bridging DNA ends”
